# Measurements taken from the supplement of paper PMC10567573.
# B1: TRAF3IP2 (parent)
# chain: PGQPLPGASVRGLHPVQKVILNYP
# Variants of: B1
# Test: protein stability index of a GFP-peptide fusion (GPS, HEK-293T) (PSI 1-6); higher = more stable
# Conditions: c terminus: a fixed tail appended
# 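Note: lentivirally expressed fusions sorted by FACS into six bins by GFP to DsRed ratio, PSI derived from sequencing read proportions per bin multiplied by bin number.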
row,Variant,protein stability index
1,PGQPLPGASVRGLSPVQKVILNYP,3.19
2,PGQPLPGASVRGLVPVQKVILNYP,2.96
3,PGQPLPGASVRGLRPVQKVILNYP,3.37
4,PGQPLPGASVRGLYPVQKVILNYP,2.82
5,PGQPLPGASVRGLTPVQKVILNYP,3.29
6,PGQPLPGASVRGLQPVQKVILNYP,3.67
7,PGQPLPGASVRGLGPVQKVILNYP,2.59
8,PGQPLPGASVRGLHPVQKVILLYP,1.83
9,PGQPLPGASVRGLHPVQKVILFYP,1.59
10,PGQPLPGASVRGLHPVQKVILPYP,3.44
11,PGQPLPGASVRGLHPVQKVILMYP,2.3
12,PGQPLPGASVRGLHPVQKVILHYP,2.49
13,PGQPLPGASVRGLHPVQKVILRYP,4.18
14,FGQPLPGASVRGLHPVQKVILNYP,3
15,NGQPLPGASVRGLHPVQKVILNYP,3.63
16,YGQPLPGASVRGLHPVQKVILNYP,2.49
17,GGQPLPGASVRGLHPVQKVILNYP,2.86
18,CGQPLPGASVRGLHPVQKVILNYP,1.73
19,IGQPLPGASVRGLHPVQKVILNYP,2.99
20,QGQPLPGASVRGLHPVQKVILNYP,3.47
21,VGQPLPGASVRGLHPVQKVILNYP,3.25
22,KGQPLPGASVRGLHPVQKVILNYP,3.02
23,PGQPLPGASVRGLHPVQKVILNLP,2.71
24,PGQPLPGASVRGLHPVQKVILNCP,3.42

row,Variant,protein stability index
1,PGQPLPGASVRGLHPVQKVILNSP,4.02
2,PGQPLPGASVRGLHPVQKVILNWP,2.52
3,PGQPLPGASVRGLHPVQKVILNRP,3.5
4,PGQPLPGASVRGLHPVQKVILNTP,3.43
5,PGQPLPGASVRGLHPVQKVILNNP,3.63
6,PGQPLPGASVRGLHPVQKVILNQP,4.07
7,PGQPLPGASVRGLHPVQKVILNAP,3.9
8,PGQPLPGASVRGLHPVQKVILNKP,4.43
9,PGQPLPGASVRGLHPVQKVILNPP,4.11
10,PGQPLAGASVRGLHPVQKVILNYP,3.49
11,PGQPLIGASVRGLHPVQKVILNYP,2.79
12,PGQPLQGASVRGLHPVQKVILNYP,3.46
13,PGQPLCGASVRGLHPVQKVILNYP,2.08
14,PGQPLWGASVRGLHPVQKVILNYP,2.53
15,PGQPLGGASVRGLHPVQKVILNYP,2.5
16,PGQPLFGASVRGLHPVQKVILNYP,3.17
17,PGQPLNGASVRGLHPVQKVILNYP,3.21
18,PGQPLRGASVRGLHPVQKVILNYP,3.63
19,PGQPLTGASVRGLHPVQKVILNYP,3.21
20,PGQPLPGASVRGLHPVQKVIYNYP,3.24
21,PGQPLPGASVRGLHPVQKVIINYP,3.5
22,PGQPLPGASVRGLHPVQKVIPNYP,3.66
23,PGQPLPGASVRGLHPVQKVISNYP,3.55
24,PGQPLPGASVRGLHPVQKVIFNYP,2.79

row,Variant,protein stability index
1,PGQPLPGASVRGLHPVQKVIRNYP,2.76
2,PGQPLPGASVRGLHPVQKVIHNYP,3.63
3,PGQPLPGASVRGLHPVQKVILNYD,3.68
4,PGQPLPGASVRGLHPVQKVILNYH,2.38
5,PGQPLPGASVRGLHPVQKVILNYF,1.78
6,PGQPLPGASVRGLHPVQKVILNYA,3.16
7,PGQPLPGASVRGLHPVQKVILNYL,2.13
8,PGQPLPGASVRGLHPVQKVILNYK,3.43
9,PGQPLPGASVRGLHPVQKVILNYC,2.69
10,PGQPLPGASVRGLHPVQKVILNYE,3.31
11,PGQPLPGASVRGLHPVQWVILNYP,2.76
12,PGQPLPGASVRGLHPVQIVILNYP,2.08
13,PGQPLPGASVRGLHPVQHVILNYP,2.85
14,PGQPLPGASVRGLHPVQQVILNYP,3.78
15,PGQPLPGASVRGLHPVQVVILNYP,2.02
16,PGQPLPGASVRGLHPVQMVILNYP,2.72
17,PGQPLPGASVRGLHPVAKVILNYP,2.62
18,PGQPLPGASVRGLHPVVKVILNYP,1.35
19,PGQPLPGASVRGLHPVEKVILNYP,2.95
20,PGQPLPGASVRGLHPVIKVILNYP,2.24
21,PGQPLPGASVRGLHPVPKVILNYP,3.51
22,PGQPLPGASVRGLHPVLKVILNYP,1.71
23,PGQPLPGASVRGLHPVCKVILNYP,2.52
24,PGQPLPGASVRGLHPVRKVILNYP,3

row,Variant,protein stability index
1,PGQPLPGASVRGLHPVKKVILNYP,2.97
2,PGQPLPGASVRGLHPVSKVILNYP,2.77
3,PIQPLPGASVRGLHPVQKVILNYP,2.62
4,PWQPLPGASVRGLHPVQKVILNYP,2.15
5,PAQPLPGASVRGLHPVQKVILNYP,2.89
6,PTQPLPGASVRGLHPVQKVILNYP,3.21
7,PHQPLPGASVRGLHPVQKVILNYP,2.06
8,PPQPLPGASVRGLHPVQKVILNYP,3.35
9,PCQPLPGASVRGLHPVQKVILNYP,2.22
10,PNQPLPGASVRGLHPVQKVILNYP,2.65
11,PDQPLPGASVRGLHPVQKVILNYP,4.21
12,PFQPLPGASVRGLHPVQKVILNYP,2.92
13,PGQPLPGASVDGLHPVQKVILNYP,3.71
14,PGQPLPGASVSGLHPVQKVILNYP,3.12
15,PGQPLPGASVEGLHPVQKVILNYP,3.19
16,PGQPLPGASVPGLHPVQKVILNYP,3.79
17,PGQPLPGASVMGLHPVQKVILNYP,2.75
18,PGQPLPGASVAGLHPVQKVILNYP,2.6
19,PGQPLPGASVFGLHPVQKVILNYP,2.06
20,PGQPLPGASVNGLHPVQKVILNYP,2.96
21,PGQPLPGASVVGLHPVQKVILNYP,2.84
22,PGRPLPGASVRGLHPVQKVILNYP,3.11
